Results on one molecule are retold here after article PMC7437997, “Mechanistic insights into Lhr helicase function in DNA repair”.

The data set has as its target Lhr (archaeal Lhr, Mth1802) (Methanothermobacter thermautotrophicus …, UniProt O27830 1-862). The data set is described as follows: EMSA; no ATP; 100 nM Lhr, 10 nM DNA; EMSA: buffer HB (20 mM Tris-HCl pH 7.5, 2 mM DTT, 100 µg/ml BSA, 7% glycerol), room temperature, 10 nM DNA, 100 nM Lhr, +/- ATP and MgCl2, 5% acrylamide TBE gel; smFRET: 1 µM Lhr, RT or 45°C. The following applies: protein: recombinant; tags: none stated (pET22b via NdeI/EcoRI, pEB352; no tag purification); label: ATTO 532 (green); partial fork 1:3 parental 24 bp, 3:4 leading arm 25 bp; S18[1-26] single-stranded; 1 nt 5' overhang on S20.

Sequence of Lhr (archaeal Lhr, Mth1802) (O27830 whole entry): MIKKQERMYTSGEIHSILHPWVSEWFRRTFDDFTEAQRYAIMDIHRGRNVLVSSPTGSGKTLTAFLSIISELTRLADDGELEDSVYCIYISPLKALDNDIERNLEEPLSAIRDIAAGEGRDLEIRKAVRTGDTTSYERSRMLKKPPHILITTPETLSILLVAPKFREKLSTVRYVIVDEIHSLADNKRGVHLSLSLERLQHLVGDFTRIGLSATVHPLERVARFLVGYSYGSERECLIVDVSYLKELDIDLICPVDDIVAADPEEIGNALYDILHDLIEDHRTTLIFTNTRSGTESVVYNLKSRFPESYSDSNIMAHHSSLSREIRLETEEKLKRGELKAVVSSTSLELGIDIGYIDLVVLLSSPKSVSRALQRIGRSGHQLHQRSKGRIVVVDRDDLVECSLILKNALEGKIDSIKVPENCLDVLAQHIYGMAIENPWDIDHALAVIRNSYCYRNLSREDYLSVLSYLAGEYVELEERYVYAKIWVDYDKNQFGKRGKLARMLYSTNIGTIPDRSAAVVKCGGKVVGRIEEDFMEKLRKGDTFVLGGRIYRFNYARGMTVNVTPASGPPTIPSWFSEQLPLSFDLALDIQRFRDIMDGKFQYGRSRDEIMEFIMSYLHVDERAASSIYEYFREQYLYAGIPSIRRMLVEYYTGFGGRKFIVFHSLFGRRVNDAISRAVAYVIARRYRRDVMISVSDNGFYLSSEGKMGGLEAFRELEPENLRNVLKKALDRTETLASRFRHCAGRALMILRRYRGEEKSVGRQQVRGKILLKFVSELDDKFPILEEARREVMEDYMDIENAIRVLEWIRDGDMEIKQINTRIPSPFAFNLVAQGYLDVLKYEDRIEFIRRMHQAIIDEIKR

B1: partial fork-2 lacking the red lagging strand (dsDNA)
DNA 1: ATCGATAGTCTCTAGACAGTATGTCCTAGCAAGCCAGAATTCGGCAGCGT
DNA 2: GACGCTGCCGAATTCTGGCTTGCTATGTAAATCTTTGCCCACGTTGACCC
DNA 3: GGGTCAACGTGGGCAAAGATTTACA
modifications: 5' biotin on S18
As to B1, the binding result is given as “binds”.
